The test system of assay [1] is heregulin-mediated phosphorylation of ErbB3 and AKT in MALME-3M cells. The experiment in a line: heregulin-mediated signaling ELISA (pErbB3, pAKT). The class given is cell-based, human. The note with it: for IC50: IgG2 isotype, 5 nM HRG. The method, then: (§1) MALME-3M cells and OVCAR8 cells are separately seeded in 96 well tissue culture plates (35,000 cells per well) and grown in RPMI-1640 media supplemented with antibiotics, 2 mM L-glutamine and 10% FBS for 24 hours at 37° C. and 5% carbon dioxide. Cells are serum-starved in RPMI-1640 media with antibiotics and 2 mM L-glutamine for 24 hours at 37° C. and 5% carbon dioxide. […] Controls are HRG without added antibody and untreated cells (no HRG and no Ab). Cells are washed with cold PBS then harvested with mammalian protein extract (M-PER) lysis buffer (Pierce, 78505) containing 150 mM NaCl, 5 mM sodium pyrophosphate (Sigma, 221368-100G), 10 uM bpV(phen) (Calbiochem, 203695), 50 μM oxophenylarsine (Calbiochem, 521000), 1 mM sodium orthovanadate (Sigma, 56508-10G), and protease inhibitor cocktail (Sigma, P2714). Cell lysates are diluted two-fold with 4% bovine serum albumin in PBST (0.2% tween-20), then analyzed by ELISA for phosphorylation of either ErbB3, or AKT (a downstream effector of ErbB3).
(§2) In order to test for AKT phosphorylation, lysates are run on an ELISA plate with a capture antibody specific to AKT and biotinylated detection antibody specific to phospho-serine 473 of phospho-AKT (pAKT). Signal is generated with streptavidin conjugated to horseradish-peroxidase reacted with SUPERSIGNAL ELISA Pico chemiluminescent substrate (Pierce, 37070). In order to assay for ErbB3 phosphorylation, lysates are run on an ELISA plate with a capture antibody specific for ErbB3 and an anti-phosphotyrosine detection antibody conjugated to horseradish-peroxidase. This is then reacted with the same chemiluminescent substrate. Luminescent signal on the ELISAs is measured using a luminometer.
On the technique in general: ELISA stands for enzyme-linked immunosorbent assay.

Assay [2] deals with heregulin-mediated phosphorylation of ErbB3 and AKT in OVCAR8 cells. The experiment in a line: heregulin-mediated signaling ELISA (pErbB3, pAKT). Conditions: for IC50: IgG2 isotype, 5 nM HRG. The class given is cell-based, human. The method, then:
as §1, §2

Assay [3] concerns HGF induced ErbB3 phosphorylation in AdrR cells. The assay is described as follows: HGF induced ErbB3 phosphorylation in AdrR cells. The class given is cell-based, human. The protocol:
Various ligands are tested for inducement of ErBb3 phosphorylation. At least three ligands, HRG, BTC, and HGF, are able to stimulate ErbB3 induced phosphorylation in AdrR cells, while EGF can not. […] Further, as known in the art (see, e.g., Wallenius et al. (2000) Am J Pathol. 156 (3):821-9), enhanced HGF signaling has been reported in various epithelial and non-epithelial tumors.
c-MET-ErbB3 interactions also occur in AdrR cells carrying the wild type EGFR and is not dependent on amplified c-MET.

Assay [4] relates to Colo357 (pancreatic) xenograft. The experiment in a line: xenograft tumor growth in nude mice. The class given is in vivo, mouse.
Another assay has as its system MCF-7 cells. The experiment in a line: trans-well cell migration assay. The note with it: 8 uM Ab #6, 10% FBS chemoattractant, 16 hours. The class given is cell-based, human. The method, then: The cells are then transferred to an upper chamber that is separated from a lower chamber by a collagen type I-coated membrane through which the cells can migrate. […] The chambers are incubated at 37° C. for 16 hours and then the cells that migrate through the membrane into the lower chamber are removed using a detachment buffer and incubated with a cell-binding fluorescent dye. Fluorescence is quantitated using a fluorescent plate reader.

The next assay concerns the target T1, ErbB3 in AdrR xenografts (Homo sapiens, UniProt P21860).
T1 construct: host or cells: AdrR (NCI/AdrR) ovarian cancer cells
The experiment in a line: total ErbB3 in AdrR xenografts in vivo by ELISA. Further details: species or system mouse. The protocol: Briefly, the samples were pulverized in a cryopulverizer (Covaris Inc). Tumors were stored in special bags (pre-weighed before the addition of the tumor) and placed in liquid nitrogen while handling them. For small tumors, 200 μL of Lysis buffer was first added to the bag with the tumor, frozen in liquid nitrogen and then pulverized to improve the recovery of the tumor from the bag. Pulverized tumors were transferred to 2 ml EPPENDORF tubes and placed in liquid nitrogen until lysed. Tumors were lysed in Lysis buffer supplemented with protease and phosphatase inhibitors. Lysis Buffer was added to the tumor aliquots in a final concentration of 62.5 mg/ml. Tumor samples were homogenized by vortexing for 30 seconds and letting them sit on ice for 30 min. The lysates were spun for 10 minutes in QIAGEN […] columns for further homogenization of the samples. Cleared lysates were aliquoted into fresh tubes.
The BCA assay is performed as set forth substantially as described in the materials and methods section supra.
The total levels of ErbB3 were determined by ELISA. The ELISA reagents were purchased from R&D Systems as DUOSET kits. […] Fifty microliters of SUPERSIGNAL ELISA Pico substrate was added and readout was performed on a Fusion plate reader. Data was analyzed using Microsoft EXCEL. […]

The test system of assay [5] is three different xenografts. The assay is described as follows: VEGF secretion in xenografts in vivo. The text has this: Inhibition of VEGF correlates with inhibition of ErbB3 phosphorylation (FIG. 24C). […] Inhibition of VEGF secretion is also known in the art to correlate with inhibition of tumor induced angiogenesis, a facilitator of tumor growth.

Like-named read-outs stand apart in the source and are kept apart here.

B1: Ab #6: human anti-ErbB3 antibody from Fab-phage library, CDRs SEQ ID NOs:7-12; used as IgG1 and IgG2 isotypes; in phase I trials as MM-121 (antibody, V domains shown)
VH: EVQLLESGGGLVQPGGSLRLSCAASGFTFSHYVMAWVRQAPGKGLEWVSSISSSGGWTLYADSVKGRFTISRDNSKNTLYLQMNSLRAEDTAVYYCTRGLKMATIFDYWGQGTLVTVSS
VL: QSALTQPASVSGSPGQSITISCTGTSSDVGSYNVVSWYQQHPGKAPKLIIYEVSQRPSGVSNRFSGSKSGNTASLTISGLQTEDEADYYCCSYAGSSIFVIFGGGTKVTVL
On to B1, for which the “extent of inhibition of phosphorylation of AKT and ErbB3” value in assay [1] (FIGS. 16A-D, MALME-3M cells and OVCAR8 cells) is “essentially complete inhibiton”. In addition, the “inhibition of heregulin-mediated signaling” value in assay [1] (MALME-3M cells) and in assay [2] was “potent inhibitor of heregulin-mediated signaling” each time. Also, the IC50 was found to be 15 nM in assay [1] (MALME-3M cells, read-out: IC50, heregulin-mediated phosphorylation of ErbB3); 11 nM in assay [1] (MALME-3M cells, read-out: IC50, phosphorylation of AKT); 24 nM in assay [2] (read-out: IC50, heregulin-mediated phosphorylation of ErbB3); 67 nM in assay [2] (read-out: IC50, phosphorylation of AKT); 0.244 nM in assay [3] (HGF induced ErbB3 phosphorylation in AdrR cells (FIG. 28)). Besides, the “inhibition of HGF induced ErbB3 phosphorylation” value in assay [3] (AdrR cells) is “inhibits HGF induced ErbB3 phosphorylation”. Besides, the “inhibition of tumor growth” value in assay [4] (300 ug every three days (Q3d), p<0.05) is recorded as “significant inhibition of tumor growth”; in assay [4] (600 ug Q3d versus 300 ug), “further elevated”; in assay [4] (1500 ug Q3d versus 600 ug), “did not result in increased efficacy”. Besides, the “inhibition of FBS induced cell migration” value in the assay on MCF-7 cells is “inhibits the FBS induced cell migration”. Further, the “downregulation of ErbB3 in xenografts” value with ErbB3 in AdrR xenografts is “downregulated ErbB3”. Besides, the “inhibition of VEGF secretion in vivo” value in assay [5] is “inhibiting VEGF secretion in three different xenografts, the highest being in COLO-357 xenograft”.

As a reminder, the IC50 is the concentration needed to halve the response being measured.

Values taken from patent US8691225B2, “Antibodies against the ectodomain of ErbB3 and uses thereof” (Merrimack Pharmaceuticals, Inc., priority 2007, dated 2014).
